In patent US8257758B2, “Process for the extraction, purification and enzymatic modification of soy 7S globulin alpha' subunit for use as hypocholesterolemizing agent” (Indena S.p.A., priority 2002, dated 2012):

What was measured:
[1] = test system: rats fed with hypercholesterolemic diet; test: Total cholesterol and triglycerids plasma levels in rats fed with hypercholesterolemic diet, 28 day oral treatment; type: in vivo, rat; settings: for Total cholesterol / Total triglycerids: plasma, male CD rats, hypercholesterolemic diet, oral 28 days, after 16 hour fasting
Method: Male rats CD SPF/VAF, weighing 75-100 g, were used. The animals were housed in makrolon cages (4-5 animals per cage) in environment with automatic control of light (12 hour light/12 hour darkness cycles), temperature (21±1° C.) and humidity (60±5%).
After 7 day housing, the animals were randomly divided into seven groups of 20 rats each (Table 2). During 28 days, one group was fed with normal diet (cod. 014RF25C; Mucedola S.r.l., Settimo Milanese, MI, Italy), whereas the others were fed with hypercholesterolemic diet consisting of 1% cholesterol, 0.5% cholic acid and 25% hydrogenated coconut oil (batch 332000, preparation Jan. 9, 2000; Laboratorio Dottori Piccioni, Gessate, MI, Italy), with access to water ad libitum. The diet was given daily (40 g, 09.00 a.m.) and the unconsumed amount was weighed. Treatment was carried out as follows.
Total cholesterol and triglycerids plasma levels were measured at the end of the 28 day treatment and after 16 hour fasting. […] After centrifugation for 15 min at 4° C. at 3000 rpm, plasma was recovered, frozen and stored at −20° C. until measurements.
Total cholesterol and triglycerids plasma concentrations (reported in Table 2) were determined according to conventional enzymatic assays.

LDL receptor = settings: hepatic cell line; Lovati et al. 1992, 1996; Manzoni et al. 1998; cited from earlier work

Row | Molecule | Total cholesterol ([1]; dose 200 mg/kg) [mg/dL] | Total triglycerids ([1]; dose 200 mg/kg) [mg/dL] | effect on cholesterol and total triglycerids plasma levels (in words) ([1]; administration to rats, table 2) | Total cholesterol ([1]; dose 10 mg/kg) [mg/dL] | Total triglycerids ([1]; dose 10 mg/kg) [mg/dL] | LDL receptor activity (in words) (LDL receptor)
1 | CCOC(=O)C(C)(C)Oc1ccc(Cl)cc1 [clofibrate, reference compound] | 191.2 ± 8.0 | 139.1 ± 5.8 | – | – | – | –
2 | α' subunit: soy β-conglycinin α′ subunit purified by Metal Affinity Chromatography under denaturant conditions (protein, UniProt P11827 63-621, looked up) Beta-conglycinin alpha' …: VEEEEECEEGQIPRPRPQHPERERQQHGEKEEDEGEQPRPFPFPRPRQPHQEEEHEQKEEHEWHRKEEKHGGKGSEEEQDEREHPRPHQPHQKEEEKHEWQHKQEKHQGKESEEEEEDQDEDEEQDKESQESEGSESQREPRRHKNKNPFHFNSKRFQTLFKNQYGHVRVLQRFNKRSQQLQNLRDYRILEFNSKPNTLLLPHHADADYLIVILNGTAILTLVNNDDRDSYNLQSGDALRVPAGTTYYVVNPDNDENLRMITLAIPVNKPGRFESFFLSSTQAQQSYLQGFSKNILEASYDTKFEEINKVLFGREEGQQQGEERLQESVIVEISKKQIRELSKHAKSSSRKTISSEDKPFNLRSRDPIYSNKLGKLFEITPEKNPQLRDLDVFLSVVDMNEGALFLPHFNSKAIVVLVINEGEANIELVGIKEQQQRQQQEEQPLEVRKYRAELSEQDIFVIPAGYPVVVNATSDLNFFAFGINAENNQRNFLAGSKDNVISQIPSQVQELAFPGSAKDIENLIKSQSESYFVDAQPQQKEEGNKGRKGPLSSILRAFY | – | – | remarkably decreasing | 182.2 ± 12.1 | 150.1 ± 9.8 | capable of activating LDL receptor
